Earlier results on two substances are cited in PMC8541618.

The target in data set [1] is VanRA (Enterococcus faecium) (UniProt Q06239).
For data set [2] the target is unchanged. The source holds these as a separate data set.

pKd: −log10 of the molar value. Like-named read-outs stand apart in the source and are kept apart here.

Chain of UniProt Q06239 (Q06239 whole entry): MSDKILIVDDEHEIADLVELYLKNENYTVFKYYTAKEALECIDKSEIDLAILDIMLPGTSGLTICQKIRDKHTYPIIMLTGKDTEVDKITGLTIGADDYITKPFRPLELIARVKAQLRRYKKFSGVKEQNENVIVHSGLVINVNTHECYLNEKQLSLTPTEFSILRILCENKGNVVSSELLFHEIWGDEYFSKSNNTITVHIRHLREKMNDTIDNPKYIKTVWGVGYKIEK

Consider VanSA (from UniProt Q06240), for which, in data set [1], the pKd was 5.72.

Take “VanSA cytosolic portion (from UniProt Q06240)”: the pKd in data set [2] is 5.17.

As a reminder, the pKd is −log10 of the Kd, conventionally taken in molar units.
